In patent US20200055896:

Key:
[1] = tested on: GP probe: fluorescence-quenched peptide of the region flanking the C-terminal human FGF21 cleavage site (VGPSQG)
[2] = tested on: aP probe: FGF21-based peptide with D-alanine at P2 (VaPSQG)

Sequence of PREP in mouse plasma (chain, as listed by the source): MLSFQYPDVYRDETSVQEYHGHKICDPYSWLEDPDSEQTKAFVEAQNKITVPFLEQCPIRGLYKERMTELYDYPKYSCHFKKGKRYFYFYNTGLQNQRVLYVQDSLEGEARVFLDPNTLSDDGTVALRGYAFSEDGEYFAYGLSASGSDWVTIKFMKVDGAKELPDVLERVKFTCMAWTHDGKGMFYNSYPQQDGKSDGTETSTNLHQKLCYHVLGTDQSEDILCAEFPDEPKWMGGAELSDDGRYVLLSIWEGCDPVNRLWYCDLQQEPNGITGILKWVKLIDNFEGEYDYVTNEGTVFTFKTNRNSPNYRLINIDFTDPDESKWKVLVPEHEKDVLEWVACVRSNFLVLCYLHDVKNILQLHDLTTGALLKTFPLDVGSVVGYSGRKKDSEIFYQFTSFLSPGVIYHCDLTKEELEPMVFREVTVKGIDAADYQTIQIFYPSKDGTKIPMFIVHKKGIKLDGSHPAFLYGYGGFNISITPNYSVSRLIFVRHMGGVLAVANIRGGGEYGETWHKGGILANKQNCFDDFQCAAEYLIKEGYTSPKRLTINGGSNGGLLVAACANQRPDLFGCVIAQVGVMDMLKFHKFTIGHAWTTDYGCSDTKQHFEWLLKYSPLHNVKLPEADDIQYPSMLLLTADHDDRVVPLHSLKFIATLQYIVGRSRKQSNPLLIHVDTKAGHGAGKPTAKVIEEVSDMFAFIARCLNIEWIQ

Substance: PREP in mouse plasma
- cleavage of the GP probe in mouse plasma, with cpd60 and KYP-2047 [1]: PREP has a smaller but significant contribution

Substance: FAP in human serum
- cleavage of the aP probe in immunodepleted human serum [2]: signal is lost after FAP immunodepletion from human serum, but not in control IgG-immunodepleted serum

Substance: Human DPPII/DPP7 (3438-SE)
- cleavage of fluorescence-quenched peptide (FRET-quench assay), peptidase at 2.5 µg/ml [2]: did not exhibit an ability to cleave the aP probe
